Assay [1] addresses NAGK (Synechococcus elongatus) (UniProt Q6V1L5). In words: ultrafiltration. To be noted: cited from earlier work.
Assay [2] concerns the target PII-LgBiT (wild-type PII protein from Synechocystis sp. PCC6803 fused to Large BiT) (Synechocystis sp. PCC6803) (UniProt Q55247). In words: split reporter (BiFC, NanoBiT); competition; 10 pM PII-LgBiT trimer with PipX (180, 900, 1800 nM monomer) 15 min at 30 °C, then 180 nM NAGK-SmBiT monomer for 30 min; 2 mM ATP.
Assay [3] shares this target. Briefly: split reporter (BiFC, NanoBiT); time course; 10 pM PII-LgBiT and 10 nM PipX-SmBiT; complex formed with 2 mM ATP, then 2 mM 2-OG added.
The target is the same in assay [4]. In words: split reporter (BiFC, NanoBiT); time course; 10 pM PII-LgBiT and 10 nM PipX-SmBiT; ATP/ADP mixtures at a total ADP + ATP concentration of 2 mM.
Assay [5] shares this target. In words: split reporter (BiFC, NanoBiT); in solution; PipX-SmBiT (0-800 nM) titrated to 10 pM PII-LgBiT trimer; 2 mM ADP; 50 mM Tris/HCl pH 7.6, 100 mM KCl, 10% glycerol, 2 mM MgCl2, 0.1% BSA; 15 min at 30 °C; KD from half-maximal luminescence.
Assay [6] shares this target. Briefly: split reporter (BiFC, NanoBiT); time course; 10 pM PII-LgBiT and 10 nM PipX-SmBiT; complex formed with 1 mM ATP + 1 mM ADP, then 2 mM 2-OG added.
Assay [7] shares this target. Briefly: split reporter (BiFC, NanoBiT); in solution; PipX-SmBiT (0-800 nM) titrated to 10 pM PII-LgBiT trimer; 2 mM ATP; 50 mM Tris/HCl pH 7.6, 100 mM KCl, 10% glycerol, 2 mM MgCl2, 0.1% BSA; 15 min at 30 °C; KD from half-maximal luminescence.

As usually defined, the Kd is the constant that tells how readily two partners part at equilibrium.

PII-LgBiT (wild-type PII protein from Synechocystis sp. PCC6803 fused to Large BiT) (Synechocystis sp. PCC6803), sequence (Q55247 whole entry, the tested form may be a part): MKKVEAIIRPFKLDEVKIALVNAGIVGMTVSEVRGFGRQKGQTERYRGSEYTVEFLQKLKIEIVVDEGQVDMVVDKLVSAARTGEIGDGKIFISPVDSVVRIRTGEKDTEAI
PII, sequence (P0A3F4 whole entry): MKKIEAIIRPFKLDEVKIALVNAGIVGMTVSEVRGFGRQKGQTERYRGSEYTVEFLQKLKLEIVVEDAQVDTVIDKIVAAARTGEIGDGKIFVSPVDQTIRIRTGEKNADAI
NAGK (Synechococcus elongatus), sequence (Q6V1L5 whole entry, the tested form may be a part): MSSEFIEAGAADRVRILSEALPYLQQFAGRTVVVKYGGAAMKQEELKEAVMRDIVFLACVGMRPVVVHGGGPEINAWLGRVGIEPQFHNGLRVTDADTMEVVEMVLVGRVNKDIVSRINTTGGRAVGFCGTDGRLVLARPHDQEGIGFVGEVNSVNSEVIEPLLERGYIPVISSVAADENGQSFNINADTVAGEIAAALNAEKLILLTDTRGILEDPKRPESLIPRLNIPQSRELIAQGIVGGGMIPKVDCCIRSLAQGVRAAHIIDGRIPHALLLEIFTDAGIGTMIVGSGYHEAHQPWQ

Consider PII (from UniProt P0A3F4), for which the Kd in assay [1] was 0.073 µM.

Consider “PipX (without SmBiT, competitor) (natural protein)”, for which the luminescence signal of PII-LgBiT with NAGK-SmBiT left at PipX 1:1 to NAGK (2 mM ATP) in assay [2] is 50%.

Substance “PipX-SmBiT (PII-interacting protein X fused to Small BiT) (natural protein)” showed a time until half of the complex was dissociated after adding 2 mM 2-OG (2 mM ATP) in assay [3] of 45 s. Further, the luminescence signal with 0.5 mM ADP + 1.5 mM ATP (percent) in assay [4] turned out to be 80%. In addition, the Kd was found to be 0.0057 µM in assay [5] and 0.052 µM in assay [7]. Further, the time until half of the complexes was dissociated after adding 2 mM 2-OG (1 mM ATP + 1 mM ADP) in assay [6] worked out at 340 s.

These data come from paper PMC8206089, “Split NanoLuc technology allows quantitation of interactions between PII protein and its receptors with unprecedented sensitivity and reveals transient interactions” (Scientific Reports, 2021).
